Measurements reported in patent publication US20110059851A1 (MOUNT SINAI SCHOOL OF MEDICINE OF NEW YORK UNIVERSITY, published 2011).
Changes are numbered by the printed parent chain.

Target: T1, V5-tagged SHOC2^S2G (human SHOC2 Ser2Gly mutant) (human, UniProt Q5RAV5 1-582 (Pongo abelii entry), limits assumed, N-myristoylation at the N-terminal glycine (Gly 2) after excision of the initiator methionine; [3H]myristic acid incorporation shown in Cos-1 cells)
T1 construct: Expressed transiently in Cos-1 cells, with human NMT1 co-transfected, from a V5-tagged human SHOC2 cDNA construct made by site-directed mutagenesis; Tested in cell lysates by co-immunoprecipitation; also called mutant SHOC2; not shown: V5 tag
T1 sequence: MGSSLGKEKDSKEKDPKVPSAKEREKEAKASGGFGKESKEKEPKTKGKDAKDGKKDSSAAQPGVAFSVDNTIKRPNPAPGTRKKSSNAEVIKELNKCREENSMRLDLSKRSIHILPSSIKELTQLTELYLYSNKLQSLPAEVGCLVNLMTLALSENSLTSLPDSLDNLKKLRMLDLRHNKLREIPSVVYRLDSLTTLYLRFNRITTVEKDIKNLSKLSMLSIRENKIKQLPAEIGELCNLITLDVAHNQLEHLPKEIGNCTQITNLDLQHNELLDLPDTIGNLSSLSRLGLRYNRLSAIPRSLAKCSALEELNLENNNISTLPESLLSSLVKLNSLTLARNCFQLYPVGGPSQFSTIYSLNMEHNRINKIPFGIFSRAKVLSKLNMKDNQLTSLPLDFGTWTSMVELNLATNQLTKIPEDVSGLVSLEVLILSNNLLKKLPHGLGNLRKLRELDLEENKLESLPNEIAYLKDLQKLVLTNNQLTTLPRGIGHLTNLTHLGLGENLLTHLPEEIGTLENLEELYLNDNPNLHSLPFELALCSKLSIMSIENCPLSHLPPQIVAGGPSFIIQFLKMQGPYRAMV
Experiment: co-immunoprecipitation (anti-Myc or anti-V5, western blot) and confocal microscopy in COS-1 cells co-transfected with V5- and Myc-tagged proteins

binding result: no binding
B1: Myc-tagged SHOC2^wt (wild-type human SHOC2) (other)
chain: T1 sequence with G2S
notes: Expressed transiently in Cos-1 cells from a Myc-tagged human SHOC2 cDNA construct and tested in cell lysates by co-immunoprecipitation; also called wild type SHOC2; wild-type protein; not shown: Myc tag
